# T1: Fur (Pseudomonas aeruginosa, UniProt Q03456 1-134)
# T1 sequence: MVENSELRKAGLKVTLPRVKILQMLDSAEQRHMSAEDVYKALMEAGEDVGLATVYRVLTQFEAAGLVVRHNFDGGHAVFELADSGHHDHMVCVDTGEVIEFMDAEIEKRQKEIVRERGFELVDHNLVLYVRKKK
# Molecular target: T1, Fur
# Assay: fluorescence anisotropy
binder,measurement,value
prrF1-30 (dsDNA) DNA 1: GACATGGAAATGAGAATCATTATTATGTC DNA 2: GACATAATAATGATTCTCATTTCCATGTC,Kd,50 ± 10 nM

# Reference: publication doi:10.1101/2020.11.18.388926
